Experimental findings from publication PMC8415317 (Genes & Development, 2021) are described below.

Where no end group is shown, it is not given here.

Data set [1] concerns the target T1, ERH-2 (Caenorhabditis elegans, UniProt Q20057).
T1 sequence (Q20057 1-113): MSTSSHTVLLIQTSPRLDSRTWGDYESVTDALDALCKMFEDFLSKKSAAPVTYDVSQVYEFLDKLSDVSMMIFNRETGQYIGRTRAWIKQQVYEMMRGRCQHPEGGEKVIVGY
Description: Isothermal titration calorimetry, binding to ERH-2. More on the design: species or system C. elegans.

The target of data set [2] is T2, ERH-1 (Caenorhabditis elegans, UniProt Q22640).
T2 sequence (Q22640 1-103): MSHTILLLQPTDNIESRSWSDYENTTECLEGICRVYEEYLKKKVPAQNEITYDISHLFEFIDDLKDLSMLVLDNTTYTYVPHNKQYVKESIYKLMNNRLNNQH
The data set can be described thus: Isothermal titration calorimetry, binding to ERH-1. More on the design: species or system C. elegans.

Data set [3] has as its target T1, ERH-2. The data set can be described thus: NMR-monitored titration of 15N-labeled ERH-2. Type of data set: binding, C. elegans. The note with it: 1H-15N HSQC titration, 25°C, NMR buffer pH 7.50, ERH-2 ~200 μM.
The test system of data set [4] is ERH-2. Type of data set: binding, C. elegans.
A further data set concerns the target T3, ERH-2:PID-3^pep 1:2 (Caenorhabditis elegans, UniProt O76616+Q20057).
T3 sequence (Q20057 1-113): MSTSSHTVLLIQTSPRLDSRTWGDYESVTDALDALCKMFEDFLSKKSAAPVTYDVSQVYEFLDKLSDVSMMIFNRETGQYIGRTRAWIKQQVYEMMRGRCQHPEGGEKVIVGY
T3 sequence (O76616 171-203 partner limits assumed): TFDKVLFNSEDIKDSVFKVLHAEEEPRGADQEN
The data set can be described thus: Isothermal titration calorimetry, binding to ERH-2:PID-3^pep 1:2. Set-up: species or system C. elegans.

In data set [5] the test system is ERH-2. The data set can be described thus: Streptavidin pull-down, TOST-1/PID-1 mVenus-Strep bait with ERH-2. Type of data set: binding, C. elegans. Particulars: TOST-1 or PID-1 mVenus-Strep bait 10-20 μM, prey 1.2-fold molar excess, 4°C.
In data set [6] the target is T2, ERH-1. The data set can be described thus: Streptavidin pull-down, TOST-1/PID-1 mVenus-Strep bait with ERH-1. Type of data set: binding, C. elegans. The note with it: TOST-1 or PID-1 mVenus-Strep bait 10-20 μM, prey 1.2-fold molar excess, 4°C.
The target of another data set is T4, full-length ERH-2^FL (C. elegans, UniProt Q20057 1-113).
T4 sequence (looked up): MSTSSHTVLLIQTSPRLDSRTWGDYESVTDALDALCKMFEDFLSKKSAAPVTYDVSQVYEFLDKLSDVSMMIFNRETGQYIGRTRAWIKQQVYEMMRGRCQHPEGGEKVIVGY
Description: ITC.

The data set “SEC-MALS” deals with the molecule itself. The data set can be described thus: SEC-MALS.
The nature of data set [7]: SEC-MALS, molecular mass and oligomeric state. Type of data set: physicochemical, C. elegans. Particulars: for average molecular mass: 2-5 mg/mL, 20 mM Tris/HCl pH 7.5, 150 mM NaCl, 2 mM DTT.
For a further data set, the target named is T5, TOST-1-mVenus-Strep (C. elegans, UniProt Q18490 1-142).
T5 sequence (looked up): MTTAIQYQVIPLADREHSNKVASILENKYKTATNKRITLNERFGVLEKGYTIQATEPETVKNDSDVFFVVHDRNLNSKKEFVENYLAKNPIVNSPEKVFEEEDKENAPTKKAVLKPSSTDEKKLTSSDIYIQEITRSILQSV
The data set can be described thus: pull-down.

The subject of a further data set is PID-3/TOFU-6 interaction. Type of data set: binding, C. elegans.
Data set [8] deals with Cy5-labeled 16-mer oligo(U) RNA. The data set can be described thus: Fluorescence anisotropy RNA binding, Cy5-U16. The note with it: 100 nM Cy5-U16 RNA, 10 mM Tris/HCl pH 7.5, 50 mM KCl, 0.5 mM EDTA, ≥2 h at 15°C, single binding site model, n = 3 technical replicates.
Another data set has as its system TOST-1. Description: Streptavidin pull-down of ERH-2 variants with TOST-1-mVenus-Strep. Type of data set: binding, C. elegans. Particulars: ERH-2 variants as prey, TOST-1-mVenus-Strep as bait.

Regarding “NYNTNLHRKVTLSDRFELAALGYEMKAK [PID-1^pep]”, the Kd at ERH-2 [1] came out at 24 ± 3 µM; on ERH-1 [2], 73 ± 11 µM. Besides, the “dissociation constant range from NMR exchange regime” value at ERH-2 [3] was “micromolar range”.

As to “GST-PID-3^pep: GST-tagged PID-3 peptide (residues 171–203) (TFDKVLFNSEDIKDSVFKVLHAEEEPRGADQEN; also: N-terminal His6 and GST tags, order not given here)”, the “binding to ERH-2 in GST pull-down” value with ERH-2 [4] was “ERH-2 could indeed bind to GST-PID-3^pep”.

Consider KYKTATNKRITLNERFGVLEKGYTIQ [TOST-1^pep], for which the results for the Kd at ERH-1 [2] and on ERH-2:PID-3^pep 1:2 were 10 ± 2 µM and 4 ± 2 µM, respectively. Besides, on ERH-2 [3], the “dissociation constant range from NMR exchange regime” value is listed as “micromolar range”.

Turning to “PID-1: full-length PID-1, C-terminally tagged with monomeric Venus StrepII tag (NYNTNLHRKVTLSDRFELAALGYEMKAK)”, in the data set on ERH-2 [5], the “binding to ERH-2 in streptavidin pull-down” value is “Both PID-1 and TOST-1 bound ERH-2”. In the data set with ERH-1 [6], the “binding to ERH-1 in streptavidin pull-down” value was “interacted with ERH-1”.

KYKTATNKRITLNERFGVLEKGYTIQ (peptide, UniProt Q18490 28-53, looked up) [TOST-1^pep] displayed a Kd with full-length ERH-2^FL of 13 µM.

B1: PID-3^RRM F247E/Q251R (purified) (domain or fragment, C. elegans, UniProt O76616 196-274, looked up)
chain: PRGADQENMLKISGYPGMLNTFGIAQLLTPYRVNGITITGAQSAVVALENKEQVYRAVQDFNGKKLDRNHKLQVSSLVV
On to B1, for which, in the data set “SEC-MALS”, the “stoichiometry N” value amounted to 2.

B2: PID-3^RRM A220E (protein)
chain: PRGADQENMLKISGYPGMLNTFGIEQLLTPYRVNGITITGAQSAVVALENKFQVYQAVQDFNGKKLDRNHKLQVSSLVV
modifications: left off: His6, N-terminal, kept | GST, N-terminal, kept
As for B2, the oligomeric state entry in data set [7] is listed as “monomeric”.

B3: PID-3^RRM F247E/Q251R (protein)
chain: PRGADQENMLKISGYPGMLNTFGIAQLLTPYRVNGITITGAQSAVVALENKEQVYRAVQDFNGKKLDRNHKLQVSSLVV
modifications: left off: His6, N-terminal, kept | GST, N-terminal, kept
As for B3, in data set [7], the oligomeric state entry was “homodimeric”.

B4: ERH-1 (natural protein, C. elegans, UniProt Q22640 1-103, looked up)
chain: MSHTILLLQPTDNIESRSWSDYENTTECLEGICRVYEEYLKKKVPAQNEITYDISHLFEFIDDLKDLSMLVLDNTTYTYVPHNKQYVKESIYKLMNNRLNNQH
As to B4, in the data set with TOST-1-mVenus-Strep, the binding result is given as “binds”.

B5: TOFU-6^RRM: TOFU-6 RRM domain, residues 1–99 (protein)
chain: MASSSTAYYLKDAGFHIRNIPKAWNDWNLFHVFQNFGKVSYCRVVGQSNDGQVQLGFVNMMSVADADEVRKNLNDGNLIGENFTLKVTDHKNVGGSLLP
modifications: left off: His10, N-terminal, state not stated | MBP, N-terminal, state not stated
In the case of B5, the “PID-3/TOFU-6 interaction in pull-down” value in the data set on PID-3/TOFU-6 interaction is “the RRM domains of PID-3 and TOFU-6 mediate the interaction between the two proteins”. Besides, in [8], the Kd was around 60 µM.

B6: ERH-2 T13E (purified) (natural protein, C. elegans, UniProt Q20057 1-113, looked up)
chain: MSTSSHTVLLIQESPRLDSRTWGDYESVTDALDALCKMFEDFLSKKSAAPVTYDVSQVYEFLDKLSDVSMMIFNRETGQYIGRTRAWIKQQVYEMMRGRCQHPEGGEKVIVGY
Regarding B6, the binding result with TOST-1-mVenus-Strep is “binds”.

B7: ERH-2: full-length C. elegans ERH-2 (protein, UniProt Q20057 1-113, looked up)
chain: MSTSSHTVLLIQTSPRLDSRTWGDYESVTDALDALCKMFEDFLSKKSAAPVTYDVSQVYEFLDKLSDVSMMIFNRETGQYIGRTRAWIKQQVYEMMRGRCQHPEGGEKVIVGY
modifications: full-length
As for B7, in data set [7], the oligomeric state result is “homodimers” and the average molecular mass is 27 kDa.

B8: PID-3/ERH-2: PID-3/ERH-2 subcomplex (protein, UniProt O76616 1-307; Q20057 1-113, looked up)
Protein pid-3: MVAHQKADFKSKWAMVVTVNNLNDKKRADLREFSEWFIETLRLEGAFIGHYFNYEAAPVTIVETLPGNFDSCTNAYQKIHKEHPQVVLVVHILPQSQSNEYEWMKVLASRYGFVRQGLLYDNCANRFQNVETDQNSVFRNMCQWIYRSGTAIVRNEGNACGILHGKDPKPTFDKVLFNSEDIKDSVFKVLHAEEEPRGADQENMLKISGYPGMLNTFGIAQLLTPYRVNGITITGAQSAVVALENKFQVYQAVQDFNGKKLDRNHKLQVSSLVVSSPAVPLEWPSLKKSKKLVEQVGKPIRLSKVSS
Enhancer of rudimentary …: MSTSSHTVLLIQTSPRLDSRTWGDYESVTDALDALCKMFEDFLSKKSAAPVTYDVSQVYEFLDKLSDVSMMIFNRETGQYIGRTRAWIKQQVYEMMRGRCQHPEGGEKVIVGY
B8 came in with an average molecular mass in data set [7] of 92 kDa.

B9: W87A (protein)
chain: MSTSSHTVLLIQTSPRLDSRTWGDYESVTDALDALCKMFEDFLSKKSAAPVTYDVSQVYEFLDKLSDVSMMIFNRETGQYIGRTRAAIKQQVYEMMRGRCQHPEGGEKVIVGY
modifications: left off: His6, N-terminal, state not stated | Trx, N-terminal, state not stated
With B9, the “binding to TOST-1 in streptavidin pull-down” value with TOST-1 was “weaker interaction with TOST-1”.

B10: I81A/R83A (protein)
chain: MSTSSHTVLLIQTSPRLDSRTWGDYESVTDALDALCKMFEDFLSKKSAAPVTYDVSQVYEFLDKLSDVSMMIFNRETGQYAGATRAWIKQQVYEMMRGRCQHPEGGEKVIVGY
modifications: left off: His6, N-terminal, state not stated | Trx, N-terminal, state not stated
For B10, the “binding to TOST-1 in streptavidin pull-down” value in the data set on TOST-1 is given as “weaker interaction with TOST-1”.

B11: I182E and S185E: GST-tagged PID-3 mutant(s), Ile182 and Ser185 to glutamate (conjugate, UniProt O76616 1-307, looked up, variant I182E S185E)
Protein pid-3: MVAHQKADFKSKWAMVVTVNNLNDKKRADLREFSEWFIETLRLEGAFIGHYFNYEAAPVTIVETLPGNFDSCTNAYQKIHKEHPQVVLVVHILPQSQSNEYEWMKVLASRYGFVRQGLLYDNCANRFQNVETDQNSVFRNMCQWIYRSGTAIVRNEGNACGILHGKDPKPTFDKVLFNSEDEKDEVFKVLHAEEEPRGADQENMLKISGYPGMLNTFGIAQLLTPYRVNGITITGAQSAVVALENKFQVYQAVQDFNGKKLDRNHKLQVSSLVVSSPAVPLEWPSLKKSKKLVEQVGKPIRLSKVSS
modifications: GST tag
As to B11, the “binding to ERH-2 in GST pull-down” value with ERH-2 [4] is reported as “completely abrogated binding of PID-3^pep to ERH-2”.

B12: I182A and V186A: GST-tagged PID-3 mutant(s), Ile182 and Val186 to alanine (conjugate, UniProt O76616 1-307, looked up, variant I182A V186A)
Protein pid-3: MVAHQKADFKSKWAMVVTVNNLNDKKRADLREFSEWFIETLRLEGAFIGHYFNYEAAPVTIVETLPGNFDSCTNAYQKIHKEHPQVVLVVHILPQSQSNEYEWMKVLASRYGFVRQGLLYDNCANRFQNVETDQNSVFRNMCQWIYRSGTAIVRNEGNACGILHGKDPKPTFDKVLFNSEDAKDSAFKVLHAEEEPRGADQENMLKISGYPGMLNTFGIAQLLTPYRVNGITITGAQSAVVALENKFQVYQAVQDFNGKKLDRNHKLQVSSLVVSSPAVPLEWPSLKKSKKLVEQVGKPIRLSKVSS
modifications: GST tag
Turning to B12, the “binding to ERH-2 in GST pull-down” value in the data set on ERH-2 [4] is “sufficient to abolish binding”.

As for TFDKVLFNSEDIKDSVFKVLHAEEEPRGADQEN (peptide, UniProt O76616 171-203, looked up) [PID-3^pep], the “stoichiometry N” value with full-length ERH-2^FL came out at 0.97.
